Test results taken from the nanobody polyreactivity screen of Harvey et al. (2022).

Assay: yeast display, Sf9 membrane polyspecificity reagent, FACS + sequencing; frameworks hold sequencing errors
In short: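 After 36–48 hours of galactose induction, yeast (Saccharomyces cerevisiae BJ5465) displaying a synthetic nanobody library were stained at 4 °C for 1 hour with 10% biotinylated, detergent-solubilized Sf9 membrane reagent. Streptavidin microbeads enriched the stained cells before FACS sorting into low and high (top ~1%) gates on anti-HA and streptavidin fluorescence. Each clone's polyreactivity label reflects its gate of origin.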

Sequence	polyreactivity (PSR sort gate)
QVQLVESGGGLVQAGGSLRISCAASGRIFSWYVMGWYRQAPGKERELVAAISSGGSTYYADSVKGRFTISRDNAKNTVSFQMNSLKPEDTAVYYCAVRPYVYRIGASRLDYWGQGTQVTVSS	high polyreactivity
QVQLVESGGGLVQAGGSLRLSCAASGSIFPSYAMGWYRQAPGKERELVAAINWDGGSTFYADSVKGRFTISRDNAKNTVYLQMKSLKPEDTAVYYCAAPDNYGGVGGITFWRMDYWGQGTQVTVSS	low polyreactivity
QVQMQESGGGLEQAGGSLRLSCAASGNISGFGYMGWYRQAPGKEREFVAAISYGTSTYYADSVKGLFTISRDNAKNTVYLQINSLKPEDTAVFYCAALCLISKHHHYWGEGTQVTVSS	high polyreactivity
QVQLVESGGGLVQAGGSLRLSCAASGSNFAAYTMGWYRQAPGKERELVAAISVSTVSTYYADSVKGRFTISRDNAKNTVYLQMYSLTPEDTAVYYCIADATDSYPEKYEHDSWGQGTQVTVSS	low polyreactivity
QVQLVESGGGLVQAGGSLRLSCAASGRTFVNYVMGWYRQAPGKEREFVAAISRNGGSTYYADSVKGRFTISRDNAKNTVYLQMNSLKPEDTAVYYCAARVYWRYNYWGQGTQVTVSS	high polyreactivity
QVQLVESGGGLVQAGGSLGLSCAASGRTFGPYAMGWYRQAPGKERELVAAISASGASTSYADSVKGRFTIARDNAKNTVYLQMNSLKPEDTAVYYCARSYYHRPFGYWGQGTQVTVSS	low polyreactivity
QVQLVESGGGLVQAGGSLRLSCAASGFTFRYYAMGWYRQAPGKERELVAAISSGGNTRYADSVKGRFTISRDNAKNTVYLQMNSLKPEDTAVYYCARRPGAWKYVYTGDYWGQGTQVTVSS	high polyreactivity
QVQLVESGGGLVQAGGSLRLSCAASGSIFYSNAMGWYRQAPGKEREFVAAISAGGGSTYYADSVKGRFTISRDNAKNTVYLQMNSLKPEDTAVYYCAAQPYKIIYPYDYWGQGTQVTVSS	low polyreactivity
QVQLVESGGGLVQAGGSLRLSCAASGGTFLAYAMGWYRQAPGKERELVAAITRRGTRTYYADSVKGRFTISRDNAKNTVYLQMNSLKPEDTAVYYCAVSGGFYWGQGTQVTVSS	high polyreactivity
QVQLVESGGGLVQAGGSLRLSCAASGSTFDDNAMGWYRQAPGKDRELVAGISTNGGSTSYADSVKGRFTISRDNAKNTVYLPMNSLKPEDTAVYYCAKGLYVQFDYWGQGTQVTVSS	low polyreactivity
QVQLVESWGGLVQAGGSLRLSCAASGGTFGNNDMGWYRQAPGKERELVAAIRSAGTTYYADSVKGRFTISRDNAKNTVYLQMNSLKPEDTAVYYCNADTTGYWSYGFQYYGEDYWGQGTQVTVSS	low polyreactivity
QVQLVESGGGLVQAGGSLRLSCAASGFTFTWYAMGWYRPAPGKERELVAAISSGGGRTYYADSVKGRFTISRDNAKNTVYLQMNSLKPEDTAVYYCNKVSSFGYYYWGQGTQVTVSS	high polyreactivity
QVQLVESGGGIVQAGGSLRLSCAASGFTYDENAMGWYRQAPGINYSGASTYYAESVKGRFTISRDNAKNTVYLQMNSLKPEDTAVYYCAAEVVAQMNYWGQGTQVTVSS	low polyreactivity
QVQLVESGGGLVQAGGSLRLSCAASGSTFEYYAMGWYRQAPGKERELVAAISWSGGSTYYADSVKGRFTISRDNAKNTVYLQMNSLKPEDTAVYDCATDTGTSFYGINYGYDYWGQGTQVTVSS	low polyreactivity
QVQLVESGGGVVQAGGSLRLSCAASGLIIPFYARGWYRQAPGKERELVAAISWSAGSTYYADSVKGRFTMSRDNAKTTVYLQMNSLKPEDTAVYYCATDRNPADFYWGQGTQVTVSS	low polyreactivity
QVQLVESGGGLVQAGASLRLSCAASGITLDLYDMGWYRQAPGKERELVAAISRSGVRTYYADSVKWRFTISRDNAKNTVYFQMNSLKPEDTSVYYCNKGYARRYASGYDYWGQGTQVSVSS	high polyreactivity
QVQLVESGGGLVQAGVSLRLSCAASGSTLVLNAMGWYRQAPGKERELDAAISRGGGSTSYADSVKGRFTISRDNAKNTVYLQMNSLKPEDTAVYYCNAYTYYHANHVQGFGYWGQGTQVTVSS	low polyreactivity
QVQLVESGGGLVQAGGSLRLSCAASGITFNRNAMGWYRQAPGKERELVAAISSDGNTNYADSVKGRFTISRDNAKNTVYLQMNSLKPEDTAVYYCAAPVIQITDVWYDAETYPDYDYWGQGTQVTVSS	low polyreactivity
QVQLVESGGGLVQAGGSLRLSCAASGRIFNSYAMGCYRQAPGKERELVAAINWTDVSTYYADSVKGRFTISRDNAKNTVYLQMNSLKPEDTAVYYCAAVRWGSYTLSDDYWGQGTQVTVSS	low polyreactivity
QVQLVESGGALVQAGGSLRLSCAASGRIFRAYAMGWYRQAPGKERELVAAISRSGGSTYYADSVKGRFTISRDNAKNTVYLQMNSLKPEDTAVYYCAAEYYFIDTGEYDYWGQGTQVSVSS	high polyreactivity
QVQLVESGGGLVQAGGSLRLSCAASGSSFISNAKGWYRQAPGKERELVAAINWTTGRTRYADSVQGRFTISRDNAKNSVYLQMNSLKAEDTAVYYCAKYSRKWYGAYYFWGQGTQVNVSS	high polyreactivity
QVQLVESGGGLVQAGGSLRLSCAASGSTLQRYAMGWYRQAPGKERELVAAISSGGRTYYADSVKGRFTISRDNAKNTVYLQMNRLKPEDTAVYYCAAVLPARSEPVRYYYWGQGTQVTVSS	high polyreactivity

Sequence	polyreactivity (PSR sort gate)
QVQLVESGGGLVQAGGSLRLSCAASGGTFSPYDMGWYRQAPGKERELVASITGSGGSTYYADSVKGRFTISRGNAKNTVYLQMNSLKPEDTAVYYCAAQGYCTYWPYLLRLYEYWGHGTQVTVSS	low polyreactivity
QVQLVESGGGLVQAGGSLRLSCAASGRIFSRNAMGRYSQAPGKERELVAAIRWRSGSTYYADSVKGRFTISRDNAKNTVYLQMNSLNPEDTAVYYCAASGPGYSRYTQYDSWGQGTQVTESS	high polyreactivity
QVQLVESGGGLVQARGSLRLSCAASGRTFTSYAMGWYRQAPGKERELVAAISKRGGNTYYADSVKGRFTISRDNAKNTVYLQMNSLKPEDTAVYYCAARTWAGRWYGLDYWGQGTQVTVSS	high polyreactivity
QVQLVESGRGIVQAGGSLRLSCAASGRTFYVYTMGWYRQAPGKERELVAAITSGGSTNYADSVKGRFTISRDNAKNTLYLQMNSLKPEDTAVYYCAARVSTVFKRYYYWGQGTQVTVSS	high polyreactivity
QVQLVESGGGLVQAGGSLRLSCAASGRTFRPYAMGWYRQAPGKERQFVAAISSSGGSTYYADSVKGRFSISRDNAKNTVYLLMNSLKPEDTAVYYCATGRKNAAQRWGYYYWGQGTQVTVSS	high polyreactivity
QVQLVESGGGLVQAGGSLRLSCAATGRIFIAYAMGWYRQAPGKEREFVAAISSGGGSTYYADSVKGRFTISRDNAKNTVYLQMNSLKPEDTAVYYCGAWTLYWSHTTWSYDYWGQGTQGTVSS	low polyreactivity
QVQLVESGVGLVQAGGSLRLSCAASGFTFRYYAMGWYRQAPGKERELVAAIRSGGRTYYADSVKGRFTISRDNAKNTVYLQMNSLKPEDTAVYYCNAKYKYSRGYDYWGQGTQVTVSS	high polyreactivity
HVQLVESGGGLVQAAGSLRLSCAASGRIFSAYAMGWYRQAPGKEREFVAAITQSGGSTYYAESVKGRFTISRDNAKNTVYLQMNSLKPEDTAVYYCAAGDAYYTEALPFGEYDYWGQGTQVTVSS	low polyreactivity
QVQLVESGGGLVQAGGSLRLSCAASGRLFVYNAMGWYRQAPGKERELVASISWSGDSTYADSVKGRFTISRDNAKNTVYIQMNSLKPEDTAVYYCAAYSQADYQNMDYWGQGTQVTVSS	low polyreactivity
QVQLVESGGGLVQAGGSLRLSCAASGRTFKNYAMGSYRQAPGKERELVAAISWRSGSTNYADSVKGRCTISRDNAKNTVYLQMNSLKPEDTAVYYCARKRRISGWSQFTSYADFDYWGQGSQVTVSS	low polyreactivity
QVQLVESGGGLVQAGGSLRLSCAASGIIFYPYAMGWYRQAPGKERELVAGISWSGGRTYYADSVKGRFTISRDNAKNTVYLQMNSLKPEDTAVYYCAARYRQRAYDYWGQGTQVTVSS	high polyreactivity
QVQLVESGGGLVQAGGSLRLSCAASGYIFTYNALGWSRQAPGKDRELVAAISSGHGRTYYADSVKGRFTISRDHAQNTVDLEMNSLKPEDTAVYYCNASRVVYRQAYLYGYDYWGQGTQVTVSS	low polyreactivity
QVQLVESGGGLVQAGGSLRLSCAASGRIFSEYAMGWYRQAPGKERELVASISTSGGSTYYADSVKGRFTISRDNAKNTVYLQMNSLKPEDTAVYYCNVAYSRYPSYTYGYDHWGQGTQVTVSS	high polyreactivity
QVHLVESGGGLDQAGGSLRLSCAASGSTFSGYAMGWYRQAPGKERELVAAISSTGRTYYADSVKGRFTISRDNAKNTVYLQMNSLIPEDTALYYCAAKRYTVYGHKYEYWGQGTQVTVSS	high polyreactivity
QVQLVESGGGLVQAGGSLRLSCAPSGSIFRYYAMGWYRQAPGKERELVAAISWSGTSTYYADSVKGRFTISRDNAKNTVYLQMNSLKPEDTAVYYCNKVIPANIRRSYDYWGQGTQVTVSS	high polyreactivity
QVQLVESGGGLVQAGGSLRLSCAASGSTFSRYAMGWYRQAPGKERELVAAISTRGGSTRYADSVKGRFTISRDNAKNTVYLQMNSLKPEDTAVYYCAALGQGRTSATSFVDYEYWGQGTQVTVSS	high polyreactivity
QVQLVESGGGLVQAGGSLRLSCAASGSTFNKYTMGWYRQAPGKEREFVAAISRIGGSTYYADSVKGRFTISRDNAKNTVYLQMNSLKPEDTAVYYCATGVRPLRKKPVEFYHWGQGTQVTVSS	low polyreactivity
QVQLVESGGGLVQAGGSLRLSCAASARTFSYYTMGWSRQEPGKARELVARISNRGTNTYYADSVKGRFTISRDNAKNTVYLQMNSLKPEDTAVYYFAKYYYSSIVGYDSWGQGTQLTVSS	low polyreactivity
QVQLVESGGGLVQAGGSLRLSCAASGITFGYYDMGWYRQAPGKERELVAAISRGGGRTYYADSVKGRFTISRDNAKNTVYLQMNSLKPEDSAVYYCAAPSRYGGRGRPTLYDYWGQGTQVTVSS	high polyreactivity
QVQLVESGGGLVQAGGSLRLSCAASGSTIYNYAMGWYRQATGKERELVAVISRSGGRTYYADSVKGRFTISRDNAKNTVYLQMNSLKPEDTAVYYCAADTYRGYDFDYWGQGTQVTVSS	high polyreactivity
QVQLVESGGGLVQAGGSLRLSCAASGRTFNWYAMGWYRQAPGKERELVAAIRVNGGITYYADSVKGRFTISRDNAMNTVYLQMNSLKPEDTAVYYCAVYSRQGLGYWGQGTQVTVSS	high polyreactivity
